Measurements reported in EP4670742A1, “ANTI-CD79B ANTIBODY DRUG CONJUGATES” (priority 2024, dated 2025).

T1: Human CD79b (AA 29-159)-6-His (human, UniProt P40259 29-159)
T1 construct: range 29-159; No linker between CD79b and the tag is stated
T1 sequence: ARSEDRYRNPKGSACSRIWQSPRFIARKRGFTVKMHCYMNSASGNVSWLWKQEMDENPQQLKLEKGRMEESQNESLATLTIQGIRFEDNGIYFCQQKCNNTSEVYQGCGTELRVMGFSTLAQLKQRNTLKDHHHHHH

T2: Human CD79b (AA 29-159)-6-His (Homo sapiens, UniProt P40259)
T2 construct: 6-His (C)
T2 sequence (P40259 29-159): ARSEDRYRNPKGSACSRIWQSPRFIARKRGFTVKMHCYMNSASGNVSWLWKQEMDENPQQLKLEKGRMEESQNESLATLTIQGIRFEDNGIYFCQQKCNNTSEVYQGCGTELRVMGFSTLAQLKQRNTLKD

B1: ADC-1 (antibody, human IgG1, kappa, V domains shown)
VH: EVQLVESGGGLVQPGGSLRLPCAASGFTFYNYWITWIRQAPGKGLEWVANINQAGSEKSYLDAVKGRFTISRDNAKNSVYLQMNSLRVEDTAVYYCAGGFRAFDIWGQGTMVTVSS
VL: DFVLTQSPLSLSVTPGEPASISCRSSQSLLHSSGESYLDWFLQRPGQSPQVLIYLGSHRASGAPDRFSGSGSGTDFTLKISRVEAEDVGVYYCMQALQTPLTFGGGTRVEIKR
modifications: Top1i linker drug LD1 (formula III) linked via sulfhydryl groups of cysteine residues; n is 6 for the whole antibody (DAR = 6.05); conjugated positions and split between the chains not stated
notes: Antibody drug conjugate of Ab1 (IgG1, human kappa); also called anti-CD79b Top1i ADC; anti-CD79b ADC of formula (IV) with Ab1, n is 6

How the values were obtained:
[1] = target: T1, Human CD79b (AA 29-159)-6-His; assay: kinetic binding assay, method not named; recombinant human CD79b (29-159)-6-His
[2] = target: T2, Human CD79b (AA 29-159)-6-His; assay: Binding affinity to recombinant human CD79b (ka, kd, KD)
Text: The binding ligand used in the assay was recombinant human CD79b having the amino acid sequence of Ala29-Asp159 of human CD79b, which was fused with a 6-His tag at the C terminus. Table 3 provides the measured association rate (ka), dissociation rate (kd), and equilibrium dissociation constant (KD). Table 3: Binding Affinity

[3] = tested on: DLBCL GCB CDX (OCI Ly19) Tumors; assay: In vivo growth inhibition of xenografted tumors
Text: Based on an endpoint of 1000 mm3.

Row | Molecule | Kd [1] | koff [1] | kon [1] | ka ([2]; association rate) | kd ([2]; dissociation rate) | Kd ([2]; equilibrium dissociation constant) | tumor growth inhibition and tumor growth delay ([3]; FIG. 2, compared to vehicle controls, all dose levels tested) | CR (%) ([3]; dose 3x, control Vehicle) | PR (%) ([3]; dose 3x, control Vehicle) | TR (%) ([3]; dose 3x, control Vehicle) | TGD (%) ([3]; dose 3x, control Vehicle, end of study) | CR (%) ([3]; dose 3x, control Vehicle, listed as polatuzumab vedotin-piiq) | TGI (%) ([3]; dose 3x, single bolus intraperitoneally on day zero, control Vehicle, day 10 post dosing)
1 | Polatuzumab vedotin-piiq (antibody) | 5 nM | 0.0087 s⁻¹ | 1.7e+07 M⁻¹ s⁻¹ | – | – | – | – | – | – | – | – | – | –
2 | Polatuzumab vedotin-piiq | – | – | – | 1.7e+07 M⁻¹ s⁻¹ | 0.0087 s⁻¹ | 5 nM | statistically significant | No CRs | 0% | 0% | 90% | 0% | 84%
3 | B1 | 4 nM | 0.00068 s⁻¹ | 170000 M⁻¹ s⁻¹ | – | – | – | – | – | – | – | – | – | –
